Experimental data published in US20090318342A1, “Compounds” (IMPERIAL INNOVATIONS LIMITED, published 2009).

How the values were obtained:
[1] = biological target: T1, ADAMTS-4 (as used in Example 4; form not stated) (Homo sapiens (Human), UniProt O75173); experiment: GST-IGD-FLAG substrate assay, Ki(app)
T1 sequence: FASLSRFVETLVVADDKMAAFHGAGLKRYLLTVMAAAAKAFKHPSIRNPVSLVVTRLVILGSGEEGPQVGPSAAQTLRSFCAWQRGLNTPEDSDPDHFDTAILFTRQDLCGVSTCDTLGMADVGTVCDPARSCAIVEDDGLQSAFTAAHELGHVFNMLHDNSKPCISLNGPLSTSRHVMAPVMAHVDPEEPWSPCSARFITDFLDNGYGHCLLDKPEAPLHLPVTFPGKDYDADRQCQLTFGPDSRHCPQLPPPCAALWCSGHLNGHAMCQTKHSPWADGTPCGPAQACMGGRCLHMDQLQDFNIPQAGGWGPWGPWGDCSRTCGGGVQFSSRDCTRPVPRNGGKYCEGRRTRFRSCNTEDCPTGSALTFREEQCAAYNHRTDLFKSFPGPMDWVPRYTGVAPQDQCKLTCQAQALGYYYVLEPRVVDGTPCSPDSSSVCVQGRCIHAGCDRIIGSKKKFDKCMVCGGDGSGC
Experimental: (§1) Aggrecanase assays were carried out in 50 mM Tris HCl pH 7.5, 150 mM NaCl, 10 mM CaCl₂, 0.02% NaN₃, 0.05% Brij-35 at 37° C. When N-TIMP-3 was used, the inhibitor was preincubated with the enzyme for 1 hour. Reaction volumes were a total of 10 μl, consisting of 5 μl of GST-IGD-FLAG substrate (34 μM), and 5 μl of ADAMTS-4 or ADAMTS-5 (2 nM) with or without inhibitor. Enzyme amounts and incubation times were as indicated. Enzyme reactions were stopped at appropriate time points with the addition of 10 μl 2×SDS-PAGE samples loading buffer containing 20 mM EDTA. Reactions were then applied to a 10% SDS-PAGE analysis. Proteins were stained using Coomassie Brilliant Blue R-250. The stained gels were then scanned using a scanning densitometer (Biorad GS-710, Hemel Hempstead, UK) and the band intensity of the product (17 kDa) quantified using the 1D Phoretix quantification software (Nonlinear Dynamics, Newcastle upon Tyne, UK). Background subtraction was done using the rolling ball method, and band intensity expressed as pixel volumes.

[2] = biological target: T2, ADAMTS-5 (Homo sapiens (Human), UniProt Q9UNA0); experiment: GST-IGD-FLAG substrate assay, Ki(app)
T2 sequence: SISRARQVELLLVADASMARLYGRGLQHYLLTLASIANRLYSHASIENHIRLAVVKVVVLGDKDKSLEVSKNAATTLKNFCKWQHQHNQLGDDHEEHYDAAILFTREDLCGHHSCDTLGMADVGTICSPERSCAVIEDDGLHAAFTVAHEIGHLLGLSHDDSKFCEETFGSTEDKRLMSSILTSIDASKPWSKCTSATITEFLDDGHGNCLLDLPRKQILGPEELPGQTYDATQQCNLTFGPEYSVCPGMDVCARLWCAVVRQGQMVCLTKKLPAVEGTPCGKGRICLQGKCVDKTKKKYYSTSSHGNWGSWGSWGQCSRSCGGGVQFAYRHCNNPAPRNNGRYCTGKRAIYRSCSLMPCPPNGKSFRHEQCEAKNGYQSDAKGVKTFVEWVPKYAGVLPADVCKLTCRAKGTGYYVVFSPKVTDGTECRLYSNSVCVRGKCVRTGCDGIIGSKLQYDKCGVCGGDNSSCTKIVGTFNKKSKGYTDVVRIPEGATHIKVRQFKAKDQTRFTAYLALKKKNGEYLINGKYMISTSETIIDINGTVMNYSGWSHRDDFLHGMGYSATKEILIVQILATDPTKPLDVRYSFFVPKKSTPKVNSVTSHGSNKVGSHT
Experimental: as §1

[3] = biological target: gelatinase A (MMP-2) (Homo sapiens (Human), UniProt P08253); experiment: enzyme inhibition kinetics, Ki(app), as in Example 1
[4] = biological target: full-length collagenase 1 (MMP-1) (Homo sapiens (Human), UniProt P03956); experiment: as above

B1: (-2A)N-TIMP-3 (other)
chain: AACTCSPSHPQDAFCNSDIVIRAKVVGKKLVKEGPFGTLVYTIKQMKMYRGFTKMPHVQYIHTEASESLCGLKLEVNKYQYLLTGRVYDGKMYTGLCNFVERWDQLTLSQRKGLNYRYHLGCN
Ki [1]: 67 nM | Ki [2]: 1.4 nM | Ki [3]: > 250 nM | Ki [4]: > 500 nM
